Data reported in paper PMC2738423.

Assays:
Assay in all cases: SPR
[1] = target: AglyFc-WT-MBP (aglycosylated, N297A; mouse IgG1 hinge-Fc linked via Gly-Ser-Gly-Gly to MBP1–9[4Y]) (mouse | not stated)
[2] = target: AglyFc-mut-MBP (aglycosylated, N297A; mouse IgG1 hinge-Fc TT-HN mutant linked via Gly-Ser-Gly-Gly to MBP1–9[4Y]) (mouse | not stated)
[3] = target: Fc-WT-MBP (glycosylated; wild type mouse IgG1 hinge-Fc linked via Gly-Ser-Gly-Gly to MBP1–9[4Y]) (mouse | not stated)
[4] = target: wild type (WT) mouse hinge-Fc region (mouse IgG1 derived), no MBP epitope attached (mouse)

Substance: Recombinant mouse FcRn (from UniProt Q61559 22-365; P01887 21-119) (receptor)
- KD of the higher affinity interaction site [1]: 170 nM
- KD of the higher affinity interaction site [2]: 19.8 nM
- KD of the higher affinity interaction site [3]: 212 nM
- KD of the higher affinity interaction site [4]: 188 nM
